Substitutions are numbered along the chain they refer to. Names and notes keep the numbering of the source.
B1: CIgG4F5A1(G4S)1 (Fc fusion)
chain 1: GPPCPPCPAPEFLGGPSVFLFPPKPKDTLMISRTPEVTCVVVDVSQEDPEVQFNWYVDGVEVHNAKTKPREEQFNSTYRVVSVLTVLHQDWLNGKEYKCKVSNKGLPSSIEKTISKAKGQPREPQVYTLPPCQEEMTKNQVSLWCLVKGFYPSDIAVEWESNGQPENNYKTTPPVLDSDGSFFLYSRLTVDKSRWQEGNVFSCSVMHEALHNHYTQKSLSLSLGKGGGGSDVQLQESGGGLVQPGGSLRLSCAASGSIFSIDIMGWYRQAPGKQRELVATMPEGNYINYADSVKGRLTLSRDKGKNTVYLQLNSLKPEDTAVYYCYGFGVREGRGNVYWGQGTQVTVS
chain 2: GPPCPPCPAPEFLGGPSVFLFPPKPKDTLMISRTPEVTCVVVDVSQEDPEVQFNWYVDGVEVHNAKTKPREEQFNSTYRVVSVLTVLHQDWLNGKEYKCKVSNKGLPSSIEKTISKAKGQPREPQVCTLPPSQEEMTKNQVSLSCAVKGFYPSDIAVEWESNGQPENNYKTTPPVLDSDGSFFLVSRLTVDKSRWQEGNVFSCSVMHEALHNHYTQKSLSLSLGKGGGGSEVQLLESGGGLVQPGGSLRLSCAASGFTFGNYDMAWVRQAPGKRPEWVSSIDTGGDITHYADSVKGRFTISRDNAKNTLYLQMNSLRPEDTAVYWCATDEEYALGPNEFDYYGQGTLVTVSS
B2: CIgG4F6A1(G4S)1 (Fc fusion)
chain 1: GPPCPPCPAPEFLGGPSVFLFPPKPKDTLMISRTPEVTCVVVDVSQEDPEVQFNWYVDGVEVHNAKTKPREEQFNSTYRVVSVLTVLHQDWLNGKEYKCKVSNKGLPSSIEKTISKAKGQPREPQVYTLPPCQEEMTKNQVSLWCLVKGFYPSDIAVEWESNGQPENNYKTTPPVLDSDGSFFLYSRLTVDKSRWQEGNVFSCSVMHEALHNHYTQKSLSLSLGKGGGGSDVQLQESGGGLVQAGGSLRLSCAASGLTFGSYDMGWYRQAPGKQRELVGRIRNDGITYYADSVKGRFTMSRDNAKNTVYLQMNSLKPEDTAVYYCAADGTGLGHYDYWGQGTQVTVS
chain 2: B1 chain 2
B3: CIgG4A1B1(G4S)1 (Fc fusion)
chain 1: GPPCPPCPAPEFLGGPSVFLFPPKPKDTLMISRTPEVTCVVVDVSQEDPEVQFNWYVDGVEVHNAKTKPREEQFNSTYRVVSVLTVLHQDWLNGKEYKCKVSNKGLPSSIEKTISKAKGQPREPQVCTLPPSQEEMTKNQVSLSCAVKGFYPSDIAVEWESNGQPENNYKTTPPVLDSDGSFFLVSRLTVDKSRWQEGNVFSCSVMHEALHNHYTQKSLSLSLGKGGGGSQVQLQESGGGLVQTGGSLRLSCAVHGRTFSNTGMGWFRQAPGNERQFVAIISPSGTSTYYADSVKGRFTISRDPAKNTVYLQMNSLKMDDTAVYYCAASYGSNWSTLRHQRRNEYDAWGQGTQVAVS
chain 2: B1 chain 2 with C127Y, S132C, S144W, A146L, V185Y
notes: B1 on the hole (437), A1 on the knob (106)
B4: CIgG4F6A1(RS) (Fc fusion)
chain 1: GPPCPPCPAPEFLGGPSVFLFPPKPKDTLMISRTPEVTCVVVDVSQEDPEVQFNWYVDGVEVHNAKTKPREEQFNSTYRVVSVLTVLHQDWLNGKEYKCKVSNKGLPSSIEKTISKAKGQPREPQVYTLPPCQEEMTKNQVSLWCLVKGFYPSDIAVEWESNGQPENNYKTTPPVLDSDGSFFLYSRLTVDKSRWQEGNVFSCSVMHEALHNHYTQKSLSLSLGKRSDVQLQESGGGLVQAGGSLRLSCAASGLTFGSYDMGWYRQAPGKQRELVGRIRNDGITYYADSVKGRFTMSRDNAKNTVYLQMNSLKPEDTAVYYCAADGTGLGHYDYWGQGTQVTVS
chain 2: GPPCPPCPAPEFLGGPSVFLFPPKPKDTLMISRTPEVTCVVVDVSQEDPEVQFNWYVDGVEVHNAKTKPREEQFNSTYRVVSVLTVLHQDWLNGKEYKCKVSNKGLPSSIEKTISKAKGQPREPQVCTLPPSQEEMTKNQVSLSCAVKGFYPSDIAVEWESNGQPENNYKTTPPVLDSDGSFFLVSRLTVDKSRWQEGNVFSCSVMHEALHNHYTQKSLSLSLGKRSEVQLLESGGGLVQPGGSLRLSCAASGFTFGNYDMAWVRQAPGKRPEWVSSIDTGGDITHYADSVKGRFTISRDNAKNTLYLQMNSLRPEDTAVYWCATDEEYALGPNEFDYYGQGTLVTVSS
B5: CIgG4F5A1(G4S)2 (Fc fusion)
chain 1: GPPCPPCPAPEFLGGPSVFLFPPKPKDTLMISRTPEVTCVVVDVSQEDPEVQFNWYVDGVEVHNAKTKPREEQFNSTYRVVSVLTVLHQDWLNGKEYKCKVSNKGLPSSIEKTISKAKGQPREPQVYTLPPCQEEMTKNQVSLWCLVKGFYPSDIAVEWESNGQPENNYKTTPPVLDSDGSFFLYSRLTVDKSRWQEGNVFSCSVMHEALHNHYTQKSLSLSLGKGGGGSGGGGSDVQLQESGGGLVQPGGSLRLSCAASGSIFSIDIMGWYRQAPGKQRELVATMPEGNYINYADSVKGRLTLSRDKGKNTVYLQLNSLKPEDTAVYYCYGFGVREGRGNVYWGQGTQVTVS
chain 2: GPPCPPCPAPEFLGGPSVFLFPPKPKDTLMISRTPEVTCVVVDVSQEDPEVQFNWYVDGVEVHNAKTKPREEQFNSTYRVVSVLTVLHQDWLNGKEYKCKVSNKGLPSSIEKTISKAKGQPREPQVCTLPPSQEEMTKNQVSLSCAVKGFYPSDIAVEWESNGQPENNYKTTPPVLDSDGSFFLVSRLTVDKSRWQEGNVFSCSVMHEALHNHYTQKSLSLSLGKGGGGSGGGGSEVQLLESGGGLVQPGGSLRLSCAASGFTFGNYDMAWVRQAPGKRPEWVSSIDTGGDITHYADSVKGRFTISRDNAKNTLYLQMNSLRPEDTAVYWCATDEEYALGPNEFDYYGQGTLVTVSS
B6: CIgG4F6A1(G4S)2 (Fc fusion)
chain 1: GPPCPPCPAPEFLGGPSVFLFPPKPKDTLMISRTPEVTCVVVDVSQEDPEVQFNWYVDGVEVHNAKTKPREEQFNSTYRVVSVLTVLHQDWLNGKEYKCKVSNKGLPSSIEKTISKAKGQPREPQVYTLPPCQEEMTKNQVSLWCLVKGFYPSDIAVEWESNGQPENNYKTTPPVLDSDGSFFLYSRLTVDKSRWQEGNVFSCSVMHEALHNHYTQKSLSLSLGKGGGGSGGGGSDVQLQESGGGLVQAGGSLRLSCAASGLTFGSYDMGWYRQAPGKQRELVGRIRNDGITYYADSVKGRFTMSRDNAKNTVYLQMNSLKPEDTAVYYCAADGTGLGHYDYWGQGTQVTVS
chain 2: B5 chain 2
B7: CIgG4F5A1(G4S)3 (Fc fusion)
chain 1: GPPCPPCPAPEFLGGPSVFLFPPKPKDTLMISRTPEVTCVVVDVSQEDPEVQFNWYVDGVEVHNAKTKPREEQFNSTYRVVSVLTVLHQDWLNGKEYKCKVSNKGLPSSIEKTISKAKGQPREPQVYTLPPCQEEMTKNQVSLWCLVKGFYPSDIAVEWESNGQPENNYKTTPPVLDSDGSFFLYSRLTVDKSRWQEGNVFSCSVMHEALHNHYTQKSLSLSLGKGGGGSGGGGSGGGGSDVQLQESGGGLVQPGGSLRLSCAASGSIFSIDIMGWYRQAPGKQRELVATMPEGNYINYADSVKGRLTLSRDKGKNTVYLQLNSLKPEDTAVYYCYGFGVREGRGNVYWGQGTQVTVS
chain 2: GPPCPPCPAPEFLGGPSVFLFPPKPKDTLMISRTPEVTCVVVDVSQEDPEVQFNWYVDGVEVHNAKTKPREEQFNSTYRVVSVLTVLHQDWLNGKEYKCKVSNKGLPSSIEKTISKAKGQPREPQVCTLPPSQEEMTKNQVSLSCAVKGFYPSDIAVEWESNGQPENNYKTTPPVLDSDGSFFLVSRLTVDKSRWQEGNVFSCSVMHEALHNHYTQKSLSLSLGKGGGGSGGGGSGGGGSEVQLLESGGGLVQPGGSLRLSCAASGFTFGNYDMAWVRQAPGKRPEWVSSIDTGGDITHYADSVKGRFTISRDNAKNTLYLQMNSLRPEDTAVYWCATDEEYALGPNEFDYYGQGTLVTVSS
B8: CIgG4F6A1(G4S)3 (Fc fusion)
chain 1: GPPCPPCPAPEFLGGPSVFLFPPKPKDTLMISRTPEVTCVVVDVSQEDPEVQFNWYVDGVEVHNAKTKPREEQFNSTYRVVSVLTVLHQDWLNGKEYKCKVSNKGLPSSIEKTISKAKGQPREPQVYTLPPCQEEMTKNQVSLWCLVKGFYPSDIAVEWESNGQPENNYKTTPPVLDSDGSFFLYSRLTVDKSRWQEGNVFSCSVMHEALHNHYTQKSLSLSLGKGGGGSGGGGSGGGGSDVQLQESGGGLVQAGGSLRLSCAASGLTFGSYDMGWYRQAPGKQRELVGRIRNDGITYYADSVKGRFTMSRDNAKNTVYLQMNSLKPEDTAVYYCAADGTGLGHYDYWGQGTQVTVS
chain 2: B7 chain 2

What follows are binders tested against T1, recombinant human IgE (human, UniProt P01854-1 1-428) (assay: IgE-FcεRIα displacement ELISA).
T1 construct: made in-house (ALK); preloaded on immobilised FcεRIα in the displacement ELISA
Procedure, shortened: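 sdAbs at pM–μM were incubated 1 h on preformed complexes of 13 ng/ml recombinant human IgE with avi-tag-biotinylated human FcεRIα captured on streptavidin.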

T1 sequence (P01854 other isoform, or with tags, fused parts or gaps): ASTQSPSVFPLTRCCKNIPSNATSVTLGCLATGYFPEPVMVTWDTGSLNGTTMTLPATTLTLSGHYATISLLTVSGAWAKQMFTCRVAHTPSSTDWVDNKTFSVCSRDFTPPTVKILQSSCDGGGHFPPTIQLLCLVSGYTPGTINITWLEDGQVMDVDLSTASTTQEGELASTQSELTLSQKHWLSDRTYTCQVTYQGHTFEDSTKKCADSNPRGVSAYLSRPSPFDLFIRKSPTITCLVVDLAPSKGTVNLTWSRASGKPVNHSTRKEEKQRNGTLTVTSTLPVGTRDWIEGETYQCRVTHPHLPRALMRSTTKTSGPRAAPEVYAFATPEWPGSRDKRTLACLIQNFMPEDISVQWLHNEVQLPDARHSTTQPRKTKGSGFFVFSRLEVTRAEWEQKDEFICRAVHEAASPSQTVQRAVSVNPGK

Max effect	EC50	Binder
30%	–	B1
25%	–	B2
> 95%	2.9 nM	B3
20%	–	B4
55%	580 nM	B5
75%	8 nM	B6
65%	400 nM	B7
90%	3.3 nM	B8

— patent US20250171562A1 (ALK ABELL, published 2025)
